A short description of data set [1]: LDH enzyme kinetics (NADH generation, absorbance at 340 nm). In kind it is biochemical, Bacillus stearothermophilus. Here is the method: Enzyme kinetics was measured by absorbance increase at 340 nm in the generation of NADH. All assays were done at 25° C. and in 100 mM triethanolamine hydrochloride buffer following the protocols of Clarke et al. (Clarke, A. R., Wilks, H. M., Barstow, D. A., Atkinson, T., Chia, W. N. & Holbrook, J. J. An Investigation of the Contribution Made by the Carboxylate Group of an Active Site Histidine-Aspartate Couple to Binding and Catalysis in Lactate Dehydrogenase. Biochemistry 27, 1617-1622 (1988)]. Enzyme concentration of 100 nM were mixed with 10 mM NAD+ and 20 mM FBP with varying lactate concentrations for the assay. Km and Kcat were determined using GraphPad Michaelis-Menten curve fit.
Protocols for determining Kcat and Km of LDH were based on previous studies by Clarke et al.^48 Enzyme kinetics were measured by absorbance increases at 340 nm in the generation of NADH. All assays were done at 25° C. and in 100 mM triethanolamine hydrochloride buffer. Enzyme at 100 nM was mixed with 10 mM NAD^+ and 20 mM FBP with varying lactate concentrations. The initial slope of the absorbance vs. time was obtained for a range of lactate concentrations. This initial slope vs. concentration of lactate was plotted in GraphPad Prism and kinetic parameters (Km and kcat) were determined using a non-linear curve fit to the Michaelis-Menten equation.

Data set [2] is described as follows: Circular dichroism thermostability scan of LDH. Format: physicochemical. The following applies: ˜60° C. Here is the method:
The tertiary structure and thermostability of WT and mutant LDH were obtained following the protocol of Molino et al. Jasco 810 spectropolarimeter equipped with Jasco Peltier temperature controller (Jasco, Easton, Md.) were used to measure the far-UV circular dichroism (CD). LDH samples were prepared at a concentration of 0.06 mg/ml in 50 mM potassium phosphate and 100 mM NaCl. Samples were scanned between 200-260 nm at 25 C at scanning speed of 10 nm/min in 0.1 pathlength quartz cells. Thermal unfolding was monitored at ellipticity at 217 nm from 60° C. to 90° C. at a heating rate of 1° C./min.
A general note: Circular dichroism is the unequal absorption of left and right circularly polarised light.

Setting [3] is: 25° C., 100 nM enzyme, 10 mM NAD+, 20 mM FBP, varying lactate.

B1: Wt-LDH: thermostable recombinant wild-type lactate dehydrogenase, amino acid sequence from Bacillus stearothermophilus (protein, UniProt P00344 1-317, looked up)
L-lactate dehydrogenase: MKNNGGARVVVIGAGFVGASYVFALMNQGIADEIVLIDANESKAIGDAMDFNHGKVFAPKPVDIWHGDYDDCRDADLVVICAGANQKPGETRLDLVDKNIAIFRSIVESVMASGFQGLFLVATNPVDILTYATWKFSGLPHERVIGSGTILDTARFRFLLGEYFSVAPQNVHAYIIGEHGDTELPVWSQAYIGVMPIRKLVESKGEEAQKDLERIFVNVRDAAYQIIEKKGATYYGIAMGLARVTRAILHNENAILTVSAYLDGLYGERDVYIGVPAVINRNGIREVIEIELNDDEKNRFHHSAATLKSVLARAFTR
For the molecule B1, in data set [1], the “catalytic activity of LDH” value is given as “catalytic”. In data set [1] (setting [3]), the Kcat is 8.8 s⁻¹ and the Km (as a rule, the concentration of substrate that gives half-maximal velocity) amounted to 38.5 mM. Further, the “denaturation at the NP reaction temperature” value in data set [2] was “does not denature”.
